In patent US20220119501A1 (INVISISHIELD TECHNOLOGIES, published 2022) one finds binding result and IC50 data, which are given here for 7 molecules.

B1: anti-S1 (SARS-CoV-2) scFv clone #19 (scFv)
scFv: QSALTQPASVSGSPGQSITISCTGTSSDVGGYNYVSWYQQHPGKVPKLMIYEVSNRPSGVSNRFSGSKSGNTASLTISGLQAEDEADYYCSSYTSGDTLVFGGGTKVTVLGSRGGGGSGGGGSGGGGSLEMAELQLVESGGGVVQPGRSPRLSCAASGFTFSNYPMHWVRQAPGKGLEWVAVISYDGNHKYYADSLEGRFSISRDNSKNTLYLQMNSLTAADTAVYYCARGGGMGGLDSWGQGTLVTVSSTSGQAGQ
notes: also called phage clone #19
B2: anti-S1 (SARS-CoV-2) scFv clone #30 (scFv)
scFv: QSALTQPPSASGSPGQSVTISCTGTSSDVGGYDYVSWYQQHPGKAPKLMIYEVSKRPSGVSNRFSGSKSGNTASLTISGLQAEDEADYYCSSYTSSSTFPYVFGTGTKVTVLGSRGGGGSGGGGSGGGGSLEMAEVQLVESGGGLEQPGGSLRLSCAASGFTFSSYAMSWVRQAPGKGLEWVSAISASGNSTFYADSVKGRFTISRDNSKHTLDLQMNSLRADDTAVYYCARNSDVWGQGTLVTVSSTSGQAGQ
notes: also called phage clone #30
B3: anti-S1 (SARS-CoV-2) scFv clone #09 (scFv)
scFv: NFMLTQPHSVSESPGKTVSISCTGSSGSIASNYVQWYQQRPGSAPTTVIYEDKERPSGVPNRFSGSIDRSSNSASLTISGLKTEDEADYYCQSYDDGNVVFGGGTKLTVLGSRGGGGSGGGGSGGGGSLEMAEVQLVESGAEVKKPGASVKVSCKASGYTFTSYGISWVRQAPGQGLEWMGWISAYNGNTNYAQKFQDRVTLTTDTSTNTAYMLLRSLRSDDTAVYYCARTWYSYHYDIWGQGTLVTVSSTSGQAGQ
notes: also called phage clone #09
B4: anti-S1 (SARS-CoV-2) scFv clone #15 (scFv)
scFv: QSVLTQPPSVSEAPRQRVTISCSGSSSNIGNNAVNWYQQLPGKAPKLLIYFNDVQSSGVSDRFSGSKSGTSASLAISGLQSEDEADYYCAAWDDSLNAVLFGGGTKLTVLGSRGGGGSGGGGSGGGGSLEMAEVQLVQSGAEVKKPGASVKVSCKASGYTFTGYYMHWVRQAPGQGLEWMGRINPNSGGTDYARKFRGRVTMTRDTSISTAYMELSRLTSDDTAMYYCARGYGDDWGQGTLVTVSSTSGQAGQ
notes: also called phage clone #15
B5: anti-S1 (SARS-CoV-2) scFv clone #13 (scFv)
scFv: QSVLTQPPSASGTPGQRVTISCSGSSSNIGSNYVYWYQQLPGTAPKLLIYRNNQRPSGVPDRFSGSKSGTSASLAISGLRSEDEADYYCAAWDDSLSGPNYVFGTGTKVTVLGSRGGGGSGGGGSGGGGSLEMAQVQLVQSGAEVKKPGSSVKVSCKASGGTFSSYAISWVRQAPGQGLEWMGWISGYNGNTNYAQKLQGRVTMTTDTSTSTAYMELRSLRSDDTAVYYCARTGWSKGEKVTTWGEWFYVDYWGQGTLVTVSSTSGQAGQ
notes: also called phage clone #13
B6: anti-S1 (SARS-CoV-2) scFv clone #20 (scFv)
scFv: SYVLTQPPSASGTPGQRVTISCSGSSSNIGSNTVNWYQQLPGTAPKLLIYSNNQRPSGVPDRFSASKSGTSASLAISGFQSEDEADYYCAAWDDSLDGYVFGTGTKVTVLGSRGGGGSGGGGSGGGGSLEMAEVQLVQSGAEVKKPGESLKISCKGSGYSFPSYWIGWVRQMPGKGLEWMGIIYPGDSDTRYSPSFQGQVTISADKSISTAYLQWSSLKASDTAMYYCARGSYTYMGGSYDYWGQGTLVTVSSTSGQAGQ
notes: also called phage clone #20
B7: anti-S1 (SARS-CoV-2) scFv clone #26 (scFv)
scFv: QAVLTQAPSASGTLGQQVTISCSGTTSNIGRNTVNWYQHLPGTAPKLLIFVSNQRPSGVPDRFSGSKSGTSASLVISGLQSEDEADYYCGAWDDSLDGMLFGGGTKLTVLGSRGGGGSGGGGSGGGGSLEMAQVQLVQSGAEVKKPGASVKVSCKASGYTFTSYGISWVRQAPGQGLEWMGWISAYNGNTNYAQKLQGRVTMTTDTSTSTAYMELRSLRSDDTAVYYCARGYYGDLDPWGQGTLVTVSSTSGQAGQ

As a reminder, the IC50 is the point on the concentration scale where inhibition reaches its midpoint.

One test addresses T1, S1 subunit polypeptide of SARS-CoV-2 spike protein (isolate 2019-nCoV, WIV4) (SARS-CoV-2 (isolate 2019-nCoV, WIV4), UniProt P0DTC2 16-685). As to the kind of experiment: phage ELISA on SARS-CoV-2 spike S1 (FIG. 1).
For B1, the binding result was “binds”.

For the molecule B2, the binding result was “binds”.

B3: the binding result is recorded as “binds”.

In the case of B4, the binding result is “binds”.

In the case of B5, the binding result is listed as “binds”.

In the case of B6, the binding result was “binds”.

The target in a further test is T1, S1 subunit polypeptide of SARS-CoV-2 ….
Test: not given
With B7, the 50% inhibitory concentration (IC50) is 1.33 nM.
